According to patent US20220411504A1 (Janssen / Centocor, published 2022):

Molecular target: T1, human Kallikrein-2 6-His protein (soluble hK2) (human, UniProt P20151 18-261, limits assumed)
T1 construct: The assays say only 'soluble hK2' or 'human KLK2 antigen'; also called KLK2; kallikrein related peptidase 2
Experiment: SPR, bispecific captured by anti-Fc, soluble hK2 injected

T1 sequence (P20151 other isoform, or with tags, fused parts or gaps limits assumed): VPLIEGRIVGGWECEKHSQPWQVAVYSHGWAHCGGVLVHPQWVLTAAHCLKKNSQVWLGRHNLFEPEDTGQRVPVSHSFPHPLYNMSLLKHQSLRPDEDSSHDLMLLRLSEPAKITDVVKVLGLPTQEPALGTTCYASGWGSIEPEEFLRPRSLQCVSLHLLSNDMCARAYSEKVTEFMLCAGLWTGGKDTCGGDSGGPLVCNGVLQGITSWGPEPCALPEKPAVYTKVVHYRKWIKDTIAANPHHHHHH

Kd: 0.14 nM
B1: KL2B242 Fab (arm of a hK2/CD3 bispecific, Table 40) (bispecific antibody)
chain 1: QVQLQESGPGLVKPSETLSLTCTVSGGSISSYYWSWLRQPAGSGLEWIGRLYVSGFTNYNPSLKSRVTLSLDPSRNQLSLKLSSVTAADTAVYYCAGDSGNYWGWFDPWGQGTLVTVSSASTKGPSVFPLAPSSKSTSGGTAALGCLVKDYFPEPVTVSWNSGALTSGVHTFPAVLQSSGLYSLSSVVTVPSSSLGTQTYICNVNHKPSNTKVDKKVEPKSCDKTHTCPPCPAPEAAGGPSVFLFPPKPKDTLMISRTPEVTCVVVSVSHEDPEVKFNWYVDGVEVHNAKTKPREEQYNSTYRVVSVLTVLHQDWLNGKEYKCKVSNKALPAPIEKTISKAKGQPREPQVYVLPPSREEMTKNQVSLLCLVKGFYPSDIAVEWESNGQPENNYLTWPPVLDSDGSFFLYSKLTVDKSRWQQGNVFSCSVMHEALHNHYTQKSLSLSPG
chain 2: SYELTQPPSVSVSPGETASITCSGDQLGENYASWYQQKPGQSPVLVIYQDSKRPSGIPERFSGSNSGNTATLTISGTQALDEADYYCQAWDNSIVVFGGGTKLTVLGQPKAAPSVTLFPPSSEELQANKATLVCLISDFYPGAVTVAWKADSSPVKAGVETTTPSKQSNNKYAASSYLSLTPEQWKSHRSYSCQVTHEGSTVEKTVAPTECS
chain 3: DIQMTQSPSSLSASVGDRVTITCRARQSIGTAIHWYQQKPGKAPKLLIKYASESISGVPSRFSGSGSGTDFTLTISSLQPEDFATYYCQQSGSWPYTFGQGTKLEIKGGSEGKSSGSGSESKSTGGSEVQLVESGGGLVKPGGSLRLSCAASGFTFSRYNMNWVRQAPGKGLEWVSSISTSSNYIYYADSVKGRFTFSRDNAKNSLDLQMSGLRAEDTAIYYCTRGWGPFDYWGQGTLVTVSSEPKSSDKTHTCPPCPAPEAAGGPSVFLFPPKPKDTLMISRTPEVTCVVVSVSHEDPEVKFNWYVDGVEVHNAKTKPREEQYNSTYRVVSVLTVLHQDWLNGKEYKCKVSNKALPAPIEKTISKAKGQPREPQVYVYPPSREEMTKNQVSLTCLVKGFYPSDIAVEWESNGQPENNYKTTPPVLDSDGSFALVSKLTVDKSRWQQGNVFSCSVMHEALHNHYTQKSLSLSPG
